A short description of the series: label from the status in PepcDB records.

For “MCSKQSANQQISYRQTAEATLDKGMDNQPEAPYWFPKQLLKWQLSKDKAAKYNTASVPLAKRIDKWQLPTVNKTQDPKMKVVALSIMNSSTSGNAPRGINTFDANVFSNWQYIDQLVYWGGSAGEGLIVPPTADVIDSAHKNGVPVLGTVFFPQVVSGGKLKWLNDFLKQDADGHFPMADKLVAVAKAYGFDGWFINQETDPEVKSFDSASTGKTATSSTSNGLSKKHAQLMQQLIKEYKQKAGSKLDLMWYDSMTKDGKMDWQNALTKENQSYLVDANMKPVADSMFLNFWWTKKRLASQELLKKSHERAEKLGISPYNLFAGIDVQADGTATPVRWNLFANKQHVPYTSLGLYAPDWTHASSDTVDEFQAKEGALWVNDQNDPSRSIPSTTSTHWPGVSTYAVEQSAITKQPFVTNFSLGNGYNYFIKLEHHHHHH”, the protein production entry is recorded as “failed”.
Then “MCSSDSLQLHNVFVYGSFQDPDVINVMLDRTPEIVSATLPGFQRFRLKGRLYPCIVPSEKGEVHGKVLMGVTSDELENLDAVEGNEYERVTVGIVREDNSEKMAVKTYMWINKADPDMFGEWNFEEWKRLHKKKFIETFKKIMECKKKPQGQGNDDISHVLREDQ”, with “not failed”.
Then “MCTIFKVNGKIHIKELISSIVIAEGVGALSGFLSMSNVKNYSNLKKPFFSPPGFIFPIVWVILYFLMAVAAYRIWVIGKEESKDVKKALVLYAVQLLFNFLWSIIFFKFNCYGAAFIELLILLFFILCATFQFHKHDKVAAFLMIPYILWVSFAGILNFAIWFLNRNSST”, with “failed”; and “MDAADCYLEGNADAVEFCPHESYANLLAASTYTLQEGDCPSRSGSVYLFDVGDVEDVGLNLIQKIDTAGVFDIRWSRGGDGGDVALAQADADGCLIVYKIDETESKGTLREVSGKRISSSMCLCLDWDPSSTSIVVGLSDGSASVVSFTDSNLETVQEWKGHDFELWTASFDLNNPNLVYTGSDDCKFSCWDIRDSPADNRVFQNSKVHTMGVCCISSNPSDPYSIFTGSYDETLRVWDTRSVSRPLNETSVSLGGGVWRIKHHPSLSGVVLAACMHNGFALAKVSDGKGEVLESYNKHHSLAYGADWYRGKDQKQSVVATCSFYDRLLRVWMPITDFSTRCS”, with “failed”.
Turning to “MDAETAESLKLLKNISLYTETYGCTYNAGDTEKLMEIARNQGCVPASSAEEADAILINTCVVIDKTEQHMYERLDLYAGKLLFVTGCLPPVAADVLRTRYPKIHIIDPALIHSCYMEVGTAHVGTNAVLQIARGCNGHCTYCITRLARGKLVSFSAEDIVRQAKSIVEAGATEIQLTAQDTSSWGLDRNDGLRLPDLLRQLCAIPGNFMIRIGMANPDTLLPILDDFLDALKDPKIFLFLHIPVQSGSDSVLRLMGRRYTSAQYEEICQRARKAFPEIRISTDYIAGFSGETDEDAAKSAEQIRRTRPGKVNITRFSVRPNTPAAKMKKIPEPIKKQRSRELTDAANEVYDANNEALIGHIMTAVVTEVVKAGSVTARDRTYQNIVIMENLEIGTEITVKITGHRRHYLIGERIVP”, the protein production result was “failed”.
“MDALIMAGGKGTRLKENVEKPILNICEKPMIDYVIDSLLNSKIEKIYVAVSIHTPKTKEYLEKKYRLDRNYNPKIDIICTSGTNYVDDLNECMEFFKEPFLILSSDIPTIKPKVINSIIQDYLFVNNSCNRIESFCVVTKDDDYVGTPSINMGGYIPLGINILTPKHGEQTEILHVIKDIIVNVNTLSDKKLVETLINKVVELEHHHHHH”: the protein production entry was “not failed”.
As for “MDALLILGGLLLMVAGYIWVIVLAFGTGLLWGYGSLFPPVALAYIGVHWRTARKGVGLAALGCIPLVVGLALLASHDAARLEAILSLRWLKPEARPPAELAIALSGEFNGKPFAPQSGELIGGVLSLRQGHDFYAQRELQIRLPAQPLGALRLDVLPEDGGALPEVELSWLQPDQDLPEARRLLRGYTLHLDLRPKAPNRLEGEFHLSLPSDYRTTLSGHVELYTDRLRYRHGKVDLGYDSDDTLALVLRDYLQRRFASRDVSLVRAPSWRAASHARPLRIEALVAGQAQVLELTLEKNARREWTVRGDAFPALPAEPATVAAAAPPEPQALPAPGNATLDLELVQVEPQRYSQRLVKATTVRGRIAEGRFTGLDSEGRLVIRREMPGAGEASYLLRPAEIARLELLER”, the entry is “failed”.
Then “MDAREWAMLIALSLLWGGSFFFIGVAVKELPPVTIVTLRVSLAAVALLVVCRIMGLRLPREWAVWRAFFGMGLLNNIIPFCLIVWGQTQIASGLASILNATTPLFTVIVAHFLTADEKMTGNKLAGVLIGFVGVATMIGPAAFGGSSGLWGQIAILGAAISYSFAGIFGRRFKAMGVPPLMTATGQISSSTLMLIPAALLIDKPWTLAMPGLGTWGALIGIALLSTALAYLIFFRILASAGATNLALVTFLIPVSAILLGSLILGEQLEIKHFAGMAMIAAGLAAIDGRLPVKLRSLLRNAPA”, with “failed”; and “MDARFLYPLESCKIIHLLRHGQALHNVEAEKDRNALLSPHLFDAPLTDHGHQQVENLRERVVSSGLLKRVELVVTSPLFRTMQTAVGVFGNEYKQSSMTSSPPILALEVARDRNGVRPPDMRRNVSEYQTLFPTIDFSQIESEEDNLWRPDVRESEEEILARGLEFMKWLWKRPEKEVAVVSHGIVLQHMLYVFANDCDLSIRHELCKRFANCEIRTVVIVDKGMASSTEN”, with “failed”; and “MDATISVVCYKSKTLSNGEHPLMLRISKDGKKKYQSLGISVNPKFWDFQKNKPKPKCPNLEYLQKIILDKKLELQKKMLEIKSDQKEYSAATLIEANEKLQVAKNVDCFYKEIIAQCEINNKCGNRLVYLNSYNSLKRFTNGKLEIPFNTINVAWLEKYEKWLRSNGNKETTISLMFRTLRSTYNKAIKERCAHLSDYPFQEYKISKFDTSTQKRAIAKTDMLKFTETSQPIGQKKYVELSKDIFIFSYLCGGINFTDIANLTQENIVNGRLHYIRQKTGKLIKIGIPQEAMQIIKKYTDESNGYLFPILNVKVHKTALQKQNRIHKIRGKVNDILKTLGKRLGIEANITTYVARHSFASVLKKSGVNIALISEALGHSDLATTQIYLDSFDNEQVDEAMKNLL”, with “failed”.
Then “MDDIFTQCREGNAVAVRLWLDNTENDLNQGDDHGFSPLHWACREGRSAVVEMLIMRGARINVMNRGDDTPLHLAASHGHRDIVQKLLQYKADINAVNEHGNVPLHYACFWGQDQVAEDLVANGALVSICNKYGEMPVDKAKAPLRELLRERAEKMGQNLNRIPYKDTFWKGTTRTRPRNGTLNKHSGIDFKQLNFLTKLNENHSGELWKGRWQGNDIVVKVLKVRDWSTRKSRDFNEECPRLRIFSHPNVLPVLGACQSPPAPHPTLITHWMPYGSLYNVLHEGTNFVVDQSQAVKFALDMARGMAFLHTLEPLIPRHALNSRSVMIDEDMTARISMADVKFSFQCPGRMYAPAWVAPEALQKKPEDTNRRSADMWSFAVLLWELVTREVPFADLSNMEIGMKVALEGLRPTIPPGISPHVCKLMKICMNEDPAKRPKFDMIVPILEKMQDK”, with “failed”; and “MDDPFASLEPLAVAPSGPEGVRAQFDQMEDIPPPRPRQPPPAQEDPVEIEVTEDGVARAFTEKYGGTLRFDHDAGRWYHWQEDHWQADTTSRAFEYCRRLARLASEGAKHSLLSTARKASFAGGVERLARADPAHAVTQEAWDRDPWLVACPGETVDLRTGRSAVPRPEDGITRRVAVAPAAQETCPTWWQFLEDATGADSSVMRFLQQWAGYSLTGITREHTLVFLYGDGGNGKSVFINTLTGLLGDYAATAGMETFTASKSDRHPTDLAMLAGARLVAASETEEGRAWAESRIKQMTGGDRITARFMRRDFFTYTPQFKLTLVGNHRPALANVKPVEPWALVVPAELETVAQQVLAEIAAAAVSDVNPFSGTLELIVEPGLTSATGWYLIGNPALHDGLAHAFLDGQSAPRIETRAGWNTLGMEFRLTWAVDAKFIGTASWFRNPGASGCPRCRPRNAQRQGVALLCLARRSEVLDRLEHHHHHH”, with “failed”.
Regarding “MDDSMTSIKVHCLVSCFCEIIKRRSDIDFRPFYFGLWDGDFDITEGGIISYHSENINHDHYLLWYEKLYGMKVNEWYDHAKDKDSNVETFLQLVENKPENRYVIVMVDMSLLPERENKFHQKPFPHYLMISETEKEEEWFMLDPDFRWEGNMEREKVLYSVQDNPFGGGYFIDVEEIQEPTAEMVASYFIETFKRNDNELTMELKNLIIKMANEEEGYLLSGLVAAVKQIPVLAIRKYSYEHAFAYFRETLQYSEQEFDYWCDRVEDIVQGFTNVQYRAIKMAMTNNKGMLLSIVEKLDEMNAIELQIKTELERQFLSWKEMKSNESVLVF”, the protein production result is “failed”.
